Test results reported in paper PMC7170535, “Inter-α-inhibitor heavy chain-1 has an integrin-like 3D structure mediating immune regulatory activities and matrix stabilization during ovulation” (The Journal of Biological Chemistry, 2020).
Substitutions are numbered along the chain they refer to.

T1: recombinant inter-α-inhibitor heavy chain 1 (rHC1), D298A MIDAS mutant (human, UniProt P19827 35-672, D298A)
T1 construct: source: expressed and purified as described previously (58)
T1 sequence (looked up): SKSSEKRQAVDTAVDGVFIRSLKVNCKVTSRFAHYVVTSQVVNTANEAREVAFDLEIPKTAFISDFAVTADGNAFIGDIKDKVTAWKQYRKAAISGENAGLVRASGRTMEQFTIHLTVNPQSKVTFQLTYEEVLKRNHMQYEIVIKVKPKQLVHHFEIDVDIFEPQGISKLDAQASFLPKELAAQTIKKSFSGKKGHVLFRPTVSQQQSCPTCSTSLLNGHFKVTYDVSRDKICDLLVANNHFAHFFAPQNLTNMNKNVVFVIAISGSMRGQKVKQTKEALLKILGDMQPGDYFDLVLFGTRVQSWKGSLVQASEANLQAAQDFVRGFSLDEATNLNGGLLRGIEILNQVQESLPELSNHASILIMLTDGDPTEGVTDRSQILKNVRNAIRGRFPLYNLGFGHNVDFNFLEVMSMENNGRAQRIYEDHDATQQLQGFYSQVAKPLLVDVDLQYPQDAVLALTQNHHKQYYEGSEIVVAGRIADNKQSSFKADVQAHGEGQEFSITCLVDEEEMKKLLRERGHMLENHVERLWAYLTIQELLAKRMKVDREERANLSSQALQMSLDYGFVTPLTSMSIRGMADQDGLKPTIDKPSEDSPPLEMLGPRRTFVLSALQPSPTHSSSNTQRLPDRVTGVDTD

B1: vitronectin (natural protein, UniProt P04004 20-478, looked up)
chain: DQESCKGRCTEGFNVDKKCQCDELCSYYQSCCTDYTAECKPQVTRGDVFTMPEDEYTVYDDGEEKNNATVHEQVGGPSLTSDLQAQSKGNPEQTPVLKPEEEAPAPEVGASKPEGIDSRPETLHPGRPQPPAEEELCSGKPFDAFTDLKNGSLFAFRGQYCYELDEKAVRPGYPKLIRDVWGIEGPIDAAFTRINCQGKTYLFKGSQYWRFEDGVLDPDYPRNISDGFDGIPDNVDAALALPAHSYSGRERVYFFKGKQYWEYQFQHQPSQEECEGSSLSAVFEHFAMMQRDSWEDIFELLFWGRTSAGTRQPQFISRDWHGVPGQVDAAMAGRIYISGMAPRPSLAKKQRFRHRNRKGYRSQRGHSRGRNQNSRRPSRATWLSLFSSEESNLGANNYDDYRMDWLVPATCEPIQSVFFFSGDKYYRVNLRTRRVDTVDPPYPRSIAQYWLGCPAPGHL
notes: Vitronectin; source: bought: PeproTech
B2: recombinant inter-α-inhibitor heavy chain 1 (rHC1), ΔvWFA mutant lacking residues 288-478 (natural protein, human, UniProt P19827 35-672, looked up)
chain: SKSSEKRQAVDTAVDGVFIRSLKVNCKVTSRFAHYVVTSQVVNTANEAREVAFDLEIPKTAFISDFAVTADGNAFIGDIKDKVTAWKQYRKAAISGENAGLVRASGRTMEQFTIHLTVNPQSKVTFQLTYEEVLKRNHMQYEIVIKVKPKQLVHHFEIDVDIFEPQGISKLDAQASFLPKELAAQTIKKSFSGKKGHVLFRPTVSQQQSCPTCSTSLLNGHFKVTYDVSRDKICDLLVANNHFAHFFAPQNLTLLVDVDLQYPQDAVLALTQNHHKQYYEGSEIVVAGRIADNKQSSFKADVQAHGEGQEFSITCLVDEEEMKKLLRERGHMLENHVERLWAYLTIQELLAKRMKVDREERANLSSQALQMSLDYGFVTPLTSMSIRGMADQDGLKPTIDKPSEDSPPLEMLGPRRTFVLSALQPSPTHSSSNTQRLPDRVTGVDTD
notes: source: expressed and purified as described previously (58)
B3: TGFβ2-LAP, small latent complex of TGFβ2 (complex)
chain 1: LSTCSTLDMDQFMRKRIEAIRGQILSKLKLTSPPEDYPEPEEVPPEVISIYNSTRDLLQEKASRRAAACERERSDEEYYAKEVYKIDMPPFFPSENAIPPTFYRPYFRIVRFDVSAMEKNASNLVKAEFRVFRLQNPKARVPEQRIELYQILKSKDLTSPTQRYIDSKVVKTRAEGEWLSFDVTDAVHEWLHHKDRNLGFKISLHCPCCTFVPSNNYIIPNKSEELEARFAGIDGTSTYTSGDQKTIKSTRKKNSGKTPHLLLMLLPSYRLESQQTNRRKKR
chain 2: ALDAAYCFRNVQDNCCLRPLYIDFKRDLGWKWIHEPKGYNANFCAGACPYLWSSDTQHSRVLSLYNTINPEASASPCCVSQDLEPLTILYYIGKTPKIEQLSNMIVKSCKCS
B4: recombinant inter-α-inhibitor heavy chain 1 (rHC1), wild type (natural protein, human, UniProt P19827 35-672, looked up)
chain: T1 sequence (looked up) with A264D
notes: Monomer in EDTA, monomer-dimer equilibrium in Mg2+ or Mn2+; also called rHC1 (WT); WT rHC1; source: expressed and purified as described previously (58)
B5: fibronectin type III repeats 13 and 14 (cFN13–14) (domain or fragment, human, UniProt P02751-1 1812-1991, looked up)
chain: ENVSPPRRARVTDATETTITISWRTKTETITGFQVDAVPANGQTPIQRTIKPDVRSYTITGLQPGTDYKIYLYTLNDNARSSPVVIDASTAIDAPSNLRFLATTPNSLLVSWQPPRARITGYIIKYEKPGSPPREVVPRPRPGVTEATITGLEPGTEYTIYVIALKNNQKSEPLIGRKKT
notes: Fibronectin, human, amino acid residues 1812-1991 (type III repeats 13 and 14); Mass spectrometry matched the construct with the N-terminal methionine removed; the monomeric protein was separated from dimeric cFN13–14 on heparin; source: E. coli BL21(DE3) pLysS, purified (nickel Sepharose, HisTrap HP, HiTrap heparin HP; monomeric form)
B6: TGFβ3-LAP, small latent complex of TGFβ3 (complex)
chain 1: LSTCTTLDFGHIKKKRVEAIRGQILSKLRLTSPPEPTVMTHVPYQVLALYNSTRELLEEMHGEREEGCTQENTESEYYAKEIHKFDMIQGLAEHNELAVCPKGITSKVFRFNVSSVEKNRTNLFRAEFRVLRVPNPSSKRNEQRIELFQILRPDEHIAKQRYIGGKNLPTRGTAEWLSFDVTDTVREWLLRRESNLGLEISIHCPCHTFQPNGDILENIHEVMEIKFKGVDNEDDHGRGDLGRLKKQKDHHNPHLILMMIPPHRLDNPGQGGQRKKR
chain 2: ALDTNYCFRNLEENCCVRPLYIDFRQDLGWKWVHEPKGYYANFCSGPCPYLRSADTTHSTVLGLYNTLNPEASASPCCVPQDLEPLTILYYVGRTPKVEQLSNMVVKSCKCS

Columns and labels:
[1] = target: B4; assay: SPR; 1,500 RU rHC1 proteins immobilised on a C1 chip by amide cross-linking; ligand as analyte; HEPES-buffered saline pH 7.5, 0.05% Tween 20, 10 mM EDTA; 50 μl/min; multicycle kinetics, 1:1 Langmuir; details: both partners purified
[2] = target: T1, recombinant inter-α-inhibitor heavy …; assay: as above; details: both partners purified
[3] = target: B4; assay: SPR; 1,500 RU rHC1 proteins immobilised on a C1 chip by amide cross-linking; ligand as analyte; HEPES-buffered saline pH 7.5, 0.05% Tween 20, 2 mM Mg2+, 2 mM Mn2+; 50 μl/min; multicycle kinetics, 1:1 Langmuir; details: both partners purified
[4] = target: T1, recombinant inter-α-inhibitor heavy …; assay: as above; details: both partners purified
vitronectin = target: B1; assay: SPR; 1,500 RU rHC1 proteins immobilised on a C1 chip by amide cross-linking; ligand as analyte; HEPES-buffered saline pH 7.5, 0.05% Tween 20, 10 mM EDTA; 50 μl/min; multicycle kinetics, 1:1 Langmuir; details: both partners purified
[5] = target: the molecule itself; assay: AUC; equilibrium AUC; rHC1 at 4, 11 and 22 μM with 0.1, 0.5, 1 or 5 mM MgCl2; 20 °C; global fit to a monomer–dimer model; dimer to monomers
[6] = target: the molecule itself; assay: SAXS; rHC1 proteins at 1.25, 2.5 and 5.0 mg/ml in HEPES-buffered saline pH 7.5 with 5 mM MgCl2
[7] = target: B4; assay: SPR; 1,000 RU rHC1 proteins immobilised on a C1 chip; cFN13–14 at 7.5-120 nM as analyte; HEPES-buffered saline pH 7.4, 0.05% Tween 20, no added metal ions or EDTA; 30 μl/min; single cycle kinetics, 1:1 Langmuir; details: both partners purified
[8] = target: B2; assay: as above; details: both partners purified
[9] = target: T1, recombinant inter-α-inhibitor heavy …; assay: as above; details: both partners purified

Binder: B1
- Kd [1]: 0.192 nM
- Kd [2]: 0.138 nM
- Kd [3]: 0.118 nM
- Kd [4]: 0.096 nM

Binder: B2
- Kd (vitronectin): 0.097 nM

Binder: B3
- Kd [3]: 8.8 nM
- Kd [4]: 12.9 nM

Binder: B4
- Kd [5]: 35300 nM
- stoichiometry N [6]: 2

Binder: B5
- Kd [7]: 14 nM
- Kd [8]: 16.3 nM
- Kd [9]: 15.7 nM

Binder: B6
- Kd [3]: 9.9 nM
- Kd [4]: 3.1 nM
